± gives the uncertainty stated by the source.
B1: Retinoic acid receptor beta, residues 85 to 161; numbered along this chain, P10826 (parent)
chain: YKPCFVCQDKSSGYHYGVSACEGCKGFFRRSIQKNMIYTCHRDKNCVINKVTRNRCQYCRLQKCFEVGMSKESVRND

Variants of: B1
Experiment: abundance fitness (aPCA) (normalised: wild type 0, dead -1); higher = more abundant; growth selection in yeast, the domain comes from the species named
Details: Homo sapiens

Variant	abundance fitness
T52N	0.023 ± 0.078
T52M	0.02 ± 0.056
T52K	-0.015 ± 0.07
T52R	-0.745 ± 0.076
Q33W	-0.097 ± 0.045
Q33N	0.066 ± 0.096
Q33T	-0.15 ± 0.074
Q33Y	-0.328 ± 0.14
Q33V	0.045 ± 0.039
F5G	-0.118 ± 0.04
F5V	-0.154 ± 0.045
F5W	-0.316 ± 0.069
F5N	-0.39 ± 0.099
F5R	-0.421 ± 0.052
D77T	-0.348 ± 0.12
D77W	-0.347 ± 0.086
D77P	0.096 ± 0.073
D77M	0.007 ± 0.084
R29L	0.026 ± 0.045
R29S	0.098 ± 0.049
R29A	0.072 ± 0.043
R29I	0.069 ± 0.066
R29E	0.167 ± 0.048
R29P	-0.77 ± 0.29

Variant	abundance fitness
F27C	-0.703 ± 0.29
F27P	-0.888 ± 0.22
F65H	-0.253 ± 0.14
F65C	-0.197 ± 0.082
F65R	-0.22 ± 0.035
F65V	-0.019 ± 0.034
N45E	0.049 ± 0.11
N45Y	-0.477 ± 0.14
N45A	0.068 ± 0.057
N45S	-0.057 ± 0.053
N45H	-0.021 ± 0.059
N45M	-0.035 ± 0.087
R75V	0.046 ± 0.042
R75P	0.039 ± 0.073
R75F	-0.187 ± 0.12
M36V	0.072 ± 0.039
M36L	0.053 ± 0.046
M36F	-0.4 ± 0.12
M36T	0.051 ± 0.065
M36W	-0.127 ± 0.052
R30A	-0.935 ± 0.14
C21V	-0.881 ± 0.11
C21L	-0.752 ± 0.1
K25E	0.036 ± 0.043

Variant	abundance fitness
K25Q	0.122 ± 0.056
K25Y	-0.047 ± 0.083
K25F	0.133 ± 0.073
K25H	-0.223 ± 0.094
K25T	0.048 ± 0.057
K25W	0.008 ± 0.053
K25G	-0.017 ± 0.038
I32Q	-0.261 ± 0.1
I32F	-0.633 ± 0.22
I32L	-0.08 ± 0.049
C56E	-0.703 ± 0.11
C56R	-0.928 ± 0.1
C56W	-0.893 ± 0.13
C56M	-0.768 ± 0.17
C56T	-0.668 ± 0.18
D43W	-0.169 ± 0.044
D43E	0.07 ± 0.044
D43C	-0.436 ± 0.082
D43S	-0.034 ± 0.045
C46P	-0.94 ± 0.15
C46R	-0.767 ± 0.12
C46T	-0.53 ± 0.083
A20Q	-0.355 ± 0.082
A20I	0.055 ± 0.093

Variant	abundance fitness
A20W	-0.672 ± 0.092
A20F	-0.077 ± 0.11
A20L	-0.112 ± 0.049
A20N	-0.491 ± 0.2
A20T	-0.065 ± 0.063
S11N	0.173 ± 0.08
S11A	-0.21 ± 0.058
S11K	-0.242 ± 0.088
E22D	-0.025 ± 0.071
E22W	-0.368 ± 0.074
E22L	-0.186 ± 0.044
E22T	-0.126 ± 0.063
S12Y	-0.364 ± 0.14
S12K	-0.207 ± 0.076
S12D	0.16 ± 0.062
G13N	-0.145 ± 0.12
G13Q	-0.503 ± 0.2
G13V	-0.192 ± 0.081
G13I	-0.279 ± 0.12
G13L	-0.457 ± 0.093
C40I	-0.667 ± 0.14
C40F	-0.775 ± 0.19
C40L	-0.555 ± 0.073
E72R	-0.151 ± 0.043

Variant	abundance fitness
E72L	-0.237 ± 0.051
E72A	-0.113 ± 0.048
R53L	0.148 ± 0.037
R53A	0.183 ± 0.039
R53E	0.102 ± 0.046
R53W	-0.026 ± 0.053
T39C	-0.047 ± 0.058
T39E	-0.025 ± 0.038
T39K	0.056 ± 0.047
T39G	-0.156 ± 0.03
T39F	0.105 ± 0.058
T39M	0.061 ± 0.039
T39D	0.078 ± 0.058
S31R	-0.559 ± 0.058
S31N	-0.508 ± 0.29
S31G	-0.774 ± 0.079
S19I	0.066 ± 0.071
S19V	0.131 ± 0.04
S19M	-0.003 ± 0.056
S19N	-0.095 ± 0.092
V18C	-0.106 ± 0.08
V18Q	-0.04 ± 0.065
V18H	-0.433 ± 0.26
V18P	-0.365 ± 0.11

Variant	abundance fitness
V18A	0.088 ± 0.044
V18F	-0.108 ± 0.12
V18M	-0.209 ± 0.18
V18Y	-0.29 ± 0.11
K34M	0.104 ± 0.051
K34T	-0.06 ± 0.056
K34H	-0.146 ± 0.11
K34I	-0.371 ± 0.12
K34F	0.014 ± 0.092
N76L	0.013 ± 0.054
N76T	-0.15 ± 0.088
N76P	0.146 ± 0.066
N76A	0.084 ± 0.054
N76C	-0.105 ± 0.079
N76Q	0.058 ± 0.1
N76M	-0.061 ± 0.082
Y16N	-0.08 ± 0.068
Y16A	-0.062 ± 0.066
Y16K	-0.295 ± 0.12
Y16D	0.128 ± 0.065
Y16M	-0.15 ± 0.098
Y16S	-0.072 ± 0.06
N49P	-0.431 ± 0.066
N49T	0.017 ± 0.042

Variant	abundance fitness
N49E	0.003 ± 0.055
N49I	-0.239 ± 0.1
N49V	-0.546 ± 0.092
N49H	-0.372 ± 0.059
K50V	0.208 ± 0.06
K50W	0.25 ± 0.078
K50I	0.244 ± 0.074
K50S	0.231 ± 0.044
C4A	-0.691 ± 0.14
C4D	-0.715 ± 0.17
C4N	-0.731 ± 0.43
Q62C	-0.268 ± 0.072
Q62G	-0.317 ± 0.05
Q62A	0.043 ± 0.045
Q62N	-0.056 ± 0.087
V51E	0.171 ± 0.083
V51L	0.238 ± 0.035
V51F	0.13 ± 0.06
L61A	-0.591 ± 0.077
L61R	-0.8 ± 0.086
Q8M	0.029 ± 0.052
Q8C	-0.073 ± 0.071
C59Q	-0.983 ± 0.3

— the Human Domainome abundance scans (Beltran et al. 2025)
